The DeepSol protein solubility set

Experiment: soluble on expression in E. coli; label from the status in PepcDB or PDB records

Sequence	soluble on expression in E. coli
MSLRAVIRVAFILMDNFSLMSFTAAMDALVTANLMGDAPIFDIVKIGLKGRVAMSDLGIAIPTDLDLSELRARHDLLLVVGGLRVDLKSTPCLRRKLFAAASAGTSLGGLWNGAYFLADARVMGGHTCAVHPDGRAMMADAFPDLRISDRSHVVDLERVTCAGASSSLRMMLEYIRVTKGSSLARAVEEILGCDEHEGHHHHHH	soluble
MSLREAMSKQAMLDAIEAEREVLIGFLQEFVRAASPNPPGDTRAAAAVIQGFLSARGVPNELLGPQESMPNVVSECEGGRAGPRLVYNGHMDVFPVGDGHGWTRDPWSGDIEEGRLHGRGTCDMKTGTAASVIAYAYLYARRAQLAGSVALTAVSDEETGGRWGTRWLLENDTRWRGDCVLNGEPSSLDTIRFSEKGTLRLKFEVLAAGAHGAYVHRSESPTRIAAALIGRLAEVEAIEPSLPAALKAHLQREDVRRALDVAMGEGAADVVTRTTLNVGVLNGGLKINMIPDRCVFEVDIRLPVGTEPDVVLARLEGILAEFPQASMEVQQWHSTPPNVCAHDHPMVDFIADNAQAIVGRRPVAVPSIGSTDCRYWRRSGVPAYVYGPAPGRMAMSNESVDLDEFIAVAKVHAAAGWDYLNGAAEGHHHHHH	soluble
MSLRETIKVGEKAPAFTVAALNGVDSISLSDYKGKIVIVHLWSPTCPHCRETNKVLPGIIGPYSKKANLAYIMIAIDMDTLTLRPVIEEDKLNFAIHGYDPFDGSAKTMMDYEAPGTPCINIVDEKGNLVGVNVTDDQLKKYLKKRFSRNSEGHHHHHH	not soluble
MSLRGALAGMLALGCLTTSTLAFERWTLEARGKSGYDAPKLEWVEGKTINEIKNPTIQYALPKFEGDVFWDTINAKPVVPDSIYGEFVQYGYELFVNTQAVIGPEVADPNMRYSGNNLSCNSCHLGAGTAKYAAPLVDNHANFPQYRNRENSLGTMAARVNGCMQRSMNGYPLPAEGKEMKAFLAYIHWLGQGIPVGAKIEGRSLKTVDRKMVQQNAADVKNGAEVYARDCASCHGAEGEGLRRESKDGKPAGYEFPPLWGSDDTYNTGAGMYRTLKAADFIKSTMPKGAPTLSDKDAYDVAAFINDYSHYRTVKLNRQNDFVDPKVRVPDHDQPGPYGPEGSYIFPDEGKTQMDYKVGPYKGIIKQKPAAKEGHHHHHH	not soluble
MSLRIVKVRTFHVRPRWLFVAVETDKGVIGWGEAVVEGQARVVERMIGDLAEYLAGRDPRRIEHHWQGMYRGAFYRGGAVLCSAISGIDQALWDITARDLGVPVHALLGGAVRDSVRMYGHARGVTDAEFAHAARRSRSAGMTAIKFGLDGPVRALDTVEYVDRQVARVAAVREAVGPAFDIALDFHGRTSPAMARRLAERLSPMGPLFIEEPCLPENVDALAEIARATNVPIAAGERIFTKWGFRELLERRAVSVVQPDLCHAGGISEVRRIAAMAEAHYVALAPHNPLGPVSLAACLQVAASTPNFLIQEYLALDDGADLGAGILAVPFSVENGHIAVPTGPGLGIEVDEAQLMDRVYAGDWTTPRFTHQDGSHGDWEGHHHHHH	not soluble
MSLRKEFPLMNRLKELRKEKNITLVELSEELGIPRSTLNRYENEDSEPKQETWEKLADYYGVSTAYLMGISNQKVSEEKALTAAKKVYQVYLSDDDLGKEIRKALMYFNKNDLDSVLKQAMQQYFTIPAVEWNTEFQSLKNTGFLYSWLEGYLVDRYRKEVKTNHNLITNTYYSIPSIDDVNEYGIFSDEIQIPLTEDFKQIFKVEDLSTKTHEEIKKLFKSDSTLIAYSYESSVDDKLKDDINMILDNARSEILNLKEKYPDKPSRIEQTTVLISKDEDTSFWSRNGSNDYIDELNLSEETKKLFVHLGSVFIEEKKRKSKAKEEGGSHHHHHH	soluble
MSLRLERLNYNKIKIFLTLDDLTDRGLTKEDLWKDSFKVHQLFKDMMNEANTELGFEANGPIAVEVYSLQAQGMVVIVTKNQDADSEDDEYDDDYIEMQVKLDESADIIYQFHSFEDIIQLSESLQRIGITGGTVYHYDGQYFLSLEDLGSHTAEGVVAVLAEYGNPTTLTIYRLQEYGKLIMDGNAVETIQTHFSEGHHHHHH	soluble
MSLRLIATEEAVTFQPVVDALRAHSRTDDASLDMILVRDVYGDEPARPAMIGRLSDVTGERLAEMDSNGVDMHLLSLTAPGVQMFDAETGTRLARIANDLMAQTVAANPTRFAGLGTFAPQDPASAAREIERVATQLRLNGLVINSHTNDLYYDDPFFHPVFEAIEASGLALYIHPRAPSKQIDRAFRDYGMNSAIWGYGIETSTNAVRMILSGLFDRFPRLKIVLGHMGEAIPFWLWRLDYMHGNATTFGGAPKLKLKPSEYFRRNFAITTSGVESHAALRYSIEVLGPENVMWAIDYPYQPMAPAVQFIRTAPIPEDVKAMVAGGNAARIFRITEGHHHHHH	soluble
MSLRLLPQPQQCVLAKGYFIVGKMQLSTPVLSQEWKQFVTEMGGTLTDQSASSINIKLVDAIDNVSVNKEEAYRLTITPKAITVEAVAERGVYWAMQTLYQLKEEKGKKNRLQCATITDWPAFRIRGFMQDVGRSYLSLEELKREIAILSRFKINTFHWHLTENQAWRLESKIFPMLNDSTNMTRMAGKYYTLEEARELTEFCKAHQVLLIPEIDMPGHSAAFIRTFRHDMQSPEGMKILKLLLDEICETFDVPYLHIGTDEVHFTNPQFVPEMVAYVRDKGKKVISWNPGWKYKAGEIDMMQLWSYRGKAQQGIPAIDSRFHYLNHFDTFGDIIALYNSRIYNADMGSDDLAGVIMGIWNDRLIDKEWNMVLENNFYPNMLAIAERSWRGGGTEYFDKQGTILPVDENSEVFRNFEDFESRMLWYKEHLFKGYPFAYVKQTHVKWNITDAFPNEGDLTKVFPPEEELKDSYTYEGKQYGVRPAIGAGIYLRHVWGKIVPAFYKDPQENHTAYAYTYVYSSKTQEVGLWAEFQNYGRSENDLPPLPGKWDYKESRIWINDQEILPPVWSATHLVKSSETALGNENCVARPPLRVHLHKGWNKVLLKLPVGKFSTNEVRLVKWMFTAVFVTPDGDKAVEGLIYSPEKEGHHHHHH	soluble
MSLRMMNKRILKGTLTAIAALMSAHAFAGQEVTVYTAFETDLLAKYKSAFEKENPDIEIKWVRDSTGIMTAKLLAEKDNPRAEVVWGLAGSSMALLKDQGVLKPYTPKGANELRANLNDPQAQQAWYGNDAFFNAVCFNEAVAKQLNLPKPQSWEDLTNPVYKGHIAMPNPASSGTGYMQVSAWLQNMGEDKAWDYMQRLDQNIAHYTHSGSKPCVQAGMGEVAIGISMATRGAKLKTQGAPLDVIVPNGIGWESEAVGLVKESDAAKRVVDWSVSKAANELYIESYPIVGHQDVSKQVPNYPNVEKVMAKMDFTQMGVDRARVLQTWSEKFDAKSEPKEGHHHHHH	soluble
MSLRNDPTGVTHAIRLDNDIFKLNVYIKNIDTSKSNLRYTEGYLQSLTNILTRAKEIAIQGASGTYESDDKKMISKEVNALLEDVVAIANAKGPDGYSIFSGTKIDSEAFKVTRENKISKTSKDGAGPQIIKVEYNGNQAEKKTEVYNDIHMSNNYPGNVIFFLQNQNIISSINTNGFAVKENTKIYIDNIEIGLTAGDTALDIVAKINESSAPVEASIDPVLNSLSIKTTTPHQIWITEEKESNVLQTLGILTKNNDTKLPPYNLSSSTEVRSRSIFDALIELRDTLYNNKEELVGSRSLAEIDESLKRLLISVADLGAKENRLDRSYERISKEAADMKEDMIQYTDLDVTKAITNLNMASLAYQVSIGISAKIMQTTLLDFIKEGHHHHHH	soluble
MSLRRSKATDHQAAGPSPGPRDAFRPASVDEDVPAAVGRLLDRFLAERVARAAALDPVFAHDIAERVARFTLDGGKRTRSQFVWWAHRACGGPAAGAEAALRVGAALELIQTCALVHDDVMDGSRLRRGRPALHTDVSAQYADAVLPAPGTRFGEAAAILAGDLALAWADDVVADTDLAPDPGRRVREVWSCLRMEMVAGQYLDIQGQATSSHSEARAMRAACLKSALYSVQRPLELGAALAGADTATTQALCSAGRCVGLAFQLRDDLHDVFEEPRRTGKPSGGDIRAGKPTYLVAVARARAEAAGDRGALAVLRRSLGCADLSDADLARVRDVLVTTGARDTVEAEIDRLVAQGLRHMGAASLAPEGRRHLDALLRSAAGAPSVRRQAPDASRSENGMPVSLLLTATAEGAPEKGIITITTDPNSSSVDKLAAALEHHHHHH	soluble
